{"source": "the RNAGym collection of RNA variant scans (doi:10.1073/pnas.2313332121)", "parents": {"B1": {"name": "TPR t1 (parent)", "chain": "GACCAAUCUGCCCUCAGAGCUCGAGAACAUCUUCGGAUGCAGAGGAGGCAGGCUUCGGUGGCGCGAUAGCGCCAACGUCCUCAACCUCCAAUGCAUCCCACCACAUGAUGAUGCCUGAAGAGCCUUGGUUUUUUG"}}}
{"variants_of": "B1", "assay": "polymerase ribozyme fitness, log enrichment relative to wild type (log ratio); higher = more active; in vitro selection for triplet polymerase activity", "method_in_brief": "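PCR was used to build mutant libraries for each subunit of a heterodimeric triplet polymerase ribozyme, which were then transcribed. A single in vitro selection round, in triplicate, used a frozen incubation at −7 °C and recovered extended constructs by gel excision, streptavidin beads and RT-PCR. Fitness is the logarithm of genotype enrichment relative to wild-type enrichment, averaged over replicates with inverse-variance weights. The logarithm is base 2, and after Illumina sequencing only genotypes with ≥10 input reads and ≥1 read per output were kept.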"}
{"variant": "U38G G52U", "polymerase ribozyme fitness (log ratio)": -2.27}
{"variant": "U38G A83G", "polymerase ribozyme fitness (log ratio)": -1.98}
{"variant": "G36U U106A G127C", "polymerase ribozyme fitness (log ratio)": -1.83}
{"variant": "A37C G60U C82U A83U U87A", "polymerase ribozyme fitness (log ratio)": -2.34}
{"variant": "A37G U55A C73U A83C A90U U125A", "polymerase ribozyme fitness (log ratio)": -2.61}
{"variant": "G39U A46G G63A C115G", "polymerase ribozyme fitness (log ratio)": -1.83}
{"variant": "G39U U78C U96A", "polymerase ribozyme fitness (log ratio)": -4.33}
{"variant": "G39A U54A A83U U92G", "polymerase ribozyme fitness (log ratio)": -4.73}
{"variant": "G36U C102A C123U", "polymerase ribozyme fitness (log ratio)": -2.11}
{"variant": "G39U G52U C70U", "polymerase ribozyme fitness (log ratio)": -2.08}
{"variant": "A37C U67C U81C C123A", "polymerase ribozyme fitness (log ratio)": -5.95}
{"variant": "A37U G39A", "polymerase ribozyme fitness (log ratio)": -1.34}
{"variant": "A37U A43C G71U C79U U112A U116G U134C", "polymerase ribozyme fitness (log ratio)": -6.04}
{"variant": "G36U G63U C80U A84C", "polymerase ribozyme fitness (log ratio)": -4.1}
{"variant": "A37G G117C", "polymerase ribozyme fitness (log ratio)": -2.52}
{"variant": "A37U C104U U116C", "polymerase ribozyme fitness (log ratio)": -0.911}
{"variant": "A37G G52A", "polymerase ribozyme fitness (log ratio)": -1.1}
{"variant": "G39A G48A C73A A100C G120A", "polymerase ribozyme fitness (log ratio)": -0.862}
{"variant": "G39U A46G C115G", "polymerase ribozyme fitness (log ratio)": -3.39}
{"variant": "G36U C73U G107C", "polymerase ribozyme fitness (log ratio)": -6.17}
{"variant": "U38C G44U A91U G120U", "polymerase ribozyme fitness (log ratio)": -2.19}
{"variant": "G39A G71A C82U U87C U132C", "polymerase ribozyme fitness (log ratio)": -1.47}
{"variant": "G39U C86U", "polymerase ribozyme fitness (log ratio)": -1.64}
{"variant": "G36U A111U", "polymerase ribozyme fitness (log ratio)": -3.05}
{"variant": "U38G U78G", "polymerase ribozyme fitness (log ratio)": -0.583}
{"variant": "U38G U55G A121C", "polymerase ribozyme fitness (log ratio)": 1.28}
{"variant": "G39U C73U", "polymerase ribozyme fitness (log ratio)": -1.52}
{"variant": "A37G G113C G135A", "polymerase ribozyme fitness (log ratio)": -2.17}
{"variant": "A37U G51U G60C C85U U96A G113A", "polymerase ribozyme fitness (log ratio)": -4.21}
{"variant": "G39U G63U", "polymerase ribozyme fitness (log ratio)": -1.63}
{"variant": "G39U C62U C99U", "polymerase ribozyme fitness (log ratio)": -5.08}
{"variant": "G39C G71C C86U", "polymerase ribozyme fitness (log ratio)": -2.13}
{"variant": "G39A G63A", "polymerase ribozyme fitness (log ratio)": -1}
{"variant": "A37U G47A A68G C80A", "polymerase ribozyme fitness (log ratio)": -6.59}
{"variant": "G39U C85A A90G A119U C123G U125G", "polymerase ribozyme fitness (log ratio)": -1.21}
{"variant": "A37C C53U C123U", "polymerase ribozyme fitness (log ratio)": 0.761}
{"variant": "U38G C56U U81A U131C", "polymerase ribozyme fitness (log ratio)": -2.23}
{"variant": "A37G C70G", "polymerase ribozyme fitness (log ratio)": -3.43}
{"variant": "U38G G61C U96G G122A", "polymerase ribozyme fitness (log ratio)": -4.11}
{"variant": "A37U C99U", "polymerase ribozyme fitness (log ratio)": -2.37}
{"variant": "A37G C49U C82A U87C U106G U133G", "polymerase ribozyme fitness (log ratio)": -2.13}
{"variant": "A37C A46C C62U U78G", "polymerase ribozyme fitness (log ratio)": -1.66}
{"variant": "G39U G122A", "polymerase ribozyme fitness (log ratio)": -1.25}
{"variant": "U38G C79G", "polymerase ribozyme fitness (log ratio)": -2.67}
{"variant": "G39C A50U G61A", "polymerase ribozyme fitness (log ratio)": -1.4}
{"variant": "C40A A90C G93U", "polymerase ribozyme fitness (log ratio)": -1.13}
{"variant": "G39A G44A G77A", "polymerase ribozyme fitness (log ratio)": -2.46}
{"variant": "A37G C53A C56A A90U A91C G113C", "polymerase ribozyme fitness (log ratio)": -2.55}
{"variant": "G36U G51C G69U", "polymerase ribozyme fitness (log ratio)": -2.55}
{"variant": "A37U A100C A103U", "polymerase ribozyme fitness (log ratio)": -5.74}
{"variant": "G36U C56A", "polymerase ribozyme fitness (log ratio)": -1.83}
{"variant": "G39C C70U U112C", "polymerase ribozyme fitness (log ratio)": 1.16}
{"variant": "G39A C40A G45U", "polymerase ribozyme fitness (log ratio)": -4.88}
{"variant": "G39A C79A C114G A121C", "polymerase ribozyme fitness (log ratio)": -4.29}
{"variant": "G39U U92A G110U U132A", "polymerase ribozyme fitness (log ratio)": -5.12}
{"variant": "G39A C40G", "polymerase ribozyme fitness (log ratio)": -1.68}
{"variant": "G39U C76A U125G", "polymerase ribozyme fitness (log ratio)": -2.02}
{"variant": "G39C A66C", "polymerase ribozyme fitness (log ratio)": -1.94}
{"variant": "G39A G93A", "polymerase ribozyme fitness (log ratio)": -2.02}
{"variant": "A37C A83U", "polymerase ribozyme fitness (log ratio)": -0.456}
{"variant": "G39A G48C A50U C94U C114G", "polymerase ribozyme fitness (log ratio)": -4.57}
{"variant": "G36U C53U G61A U96G", "polymerase ribozyme fitness (log ratio)": -2.34}
{"variant": "G39U G51A", "polymerase ribozyme fitness (log ratio)": -3.64}
{"variant": "U38G C49U C80G", "polymerase ribozyme fitness (log ratio)": -4.88}
{"variant": "G39A G51A", "polymerase ribozyme fitness (log ratio)": -2.96}
{"variant": "A37C A103C", "polymerase ribozyme fitness (log ratio)": -4.98}
{"variant": "A37G C76G G113A", "polymerase ribozyme fitness (log ratio)": -1.57}
{"variant": "A37U A90C U96A", "polymerase ribozyme fitness (log ratio)": -0.653}
{"variant": "G36U C72G C124U", "polymerase ribozyme fitness (log ratio)": -0.0425}
{"variant": "A37C A121U", "polymerase ribozyme fitness (log ratio)": 1.62}
{"variant": "C40A C53U G63A", "polymerase ribozyme fitness (log ratio)": -2.24}
{"variant": "G39U C64U", "polymerase ribozyme fitness (log ratio)": -0.207}
{"variant": "C40A A41U G57C C104U C114U", "polymerase ribozyme fitness (log ratio)": -3.33}
{"variant": "G39C G48U C73A A100U", "polymerase ribozyme fitness (log ratio)": -2.09}
{"variant": "U38G U92A U109G C114A G122U", "polymerase ribozyme fitness (log ratio)": -6.12}
{"variant": "A37G C49G C82U", "polymerase ribozyme fitness (log ratio)": -0.637}
{"variant": "G36U G63A C97U", "polymerase ribozyme fitness (log ratio)": -1.35}
{"variant": "A37C G63U G122U", "polymerase ribozyme fitness (log ratio)": -2.81}
{"variant": "A37G C49G C64G A111U U126G", "polymerase ribozyme fitness (log ratio)": -6.45}
{"variant": "U38G G47C C114A", "polymerase ribozyme fitness (log ratio)": -5.64}
{"variant": "A37C G71C", "polymerase ribozyme fitness (log ratio)": -1.27}
{"variant": "G39A U112A", "polymerase ribozyme fitness (log ratio)": 0.854}
{"variant": "A37U A43C", "polymerase ribozyme fitness (log ratio)": -1.99}
{"variant": "C40A A41U A43U G44C", "polymerase ribozyme fitness (log ratio)": -3.15}
